This passage reports stoichiometry N results from paper PMC9610346.

Experiment [1] addresses gp145 SOSIP construct of the Env spike protein from the HIV-1 BG505 clade A strain, nanodisc-embedded trimer (HIV-1 strain BG505 (clade A)). In words: cryo-EM structure.
Experiment [2] has the same target. In words: negative-stain EM.

For the substance “gp145 SOSIP construct of the Env spike protein from the HIV-1 BG505 clade A strain, nanodisc-embedded trimer (complex)”, the stoichiometry N in experiment [1] and in experiment [2] was 3 each time.
